Experimental data reported in US20220153834A1 (published 2022).
Numbering of substitutions follows the chain as printed.

B1: ID12 (antibody, V domains shown)
VH: QVQLQQSGPELVKPGASVKLSCKTSGYTFTSYDINWVKQRPGQGLEWIGWIYPSDGSTKFNEKFKGMATLTVDTSSSTAYMELHSLTSEDSTVYFCARGLWYYGGGVDYWGQGTSVTVSS
VL: DAVMTQTPLSLPVSLGDQASISCRSTQSLEDSNGNTYLNWYLQKPGQSPQLLIYRVSNRFSGVLDRFSGSGSGTDFTLKISRVEAEDLGVYFCLQVTHVPYTFGGGTKLEIKR
B2: 4E4 (antibody, V domains shown)
VH: QVQLQQPGAELVKPGASVKLSCKASGYTFTSYWMHWVKQRPGQGLEWIGMIHPNSGSTNYNEKFKNKATLTVDKSSSTAYMQLSSLTSEDSAVYYCAPRMFDDYDDYWGQGTTLTVSS
VL: QIVLTQSPAIMSASLGERVTMTCTASSSVSSSYLHWYQQKPGSSPKLWIYSTSNLASGVPVRFSGSGSGTSYSLTISRMEAEDAATYYCHHYHRSPYTFGGGTKLEIKR
B3: 3C6 (antibody, V domains shown)
VH: EVQLQQSGPELVKPGASVKIPCKASGYTFTDYNMDWVKQSHGESLEWIGDIYPNNGGTIYNQKFKDKATLTVDKSSSTAYMELRSLTSEDNAVYYCARKTGTGFDYWGQGTTLTVSS
VL: QIVLSQSPAILSASPGEKVTMTCRARSSVIYMHWYQQKPGSSPKPWIYATFNLASGVPARFSGSGSGTSYSLTISRVEAEDAATYYCQQWSSNPPTFGSGTKLEIKR
B4: 1A9 (antibody, V domains shown)
VH: EVQLQQSGPELVKPGASVKISCKASGYTFTDYYMNWVKQSHEKSLEWIGDINPNNGGTSYNQKFMGKATLTVDKSSRTAYMELRSLTSEDSTVYYCARWGIYDRFTYWGQGTLVSVSA
VL: DIKMTQSPSSMYASLGERVTIACKASQDINSFLSWFQQKPGKSPKTLIYRANRLVDGVPSRFSGSGSGQDYSLTISSLEYEDMGIYYCLQYDEFPLTFGAGTKLELKR
B5: 1D7 (antibody, V domains shown)
VH: B4 VH with E42G, S59T, M65K, R77S, T92A, Y102F, L113V, S115T
VL: B4 VL with L15R, A22T
B6: 5A5 (antibody, V domains shown)
VH: QVQLQQSGAELAKPGASVRLSCQASGYTFTTYWMHWVKQRPRQGLEWIGYIIPSSGYSKCHQKFKDKATLTADKSSNTASMQLSSLTYEDSAVYYCARSTSGYPYYFDYWGQGTTLTVSS
VL: ENVLTQSPAIMSASPGEKVTMTCSATSSVSYMHWYQQKSSTSPKLWIYDTSKLASGVPGRFSGSGSGNSYSLTISSMEAEDVATYYCFQGSWYPLTFGAGTKLELKR
B7: 3E1 (antibody, V domains shown)
VH: B6 VH with T31S, S58T, N77S, S80Y, Y109S
VL: B6 VL with K18R, Y31F
B8: anti-TSG-6 antibody of SEQ ID NO: 1 and SEQ ID NO: 2 (first entry of Table 1, clone name not printed) (antibody, V domains shown)
VH: QVRLQQSGAELAKPGASVKLSCKASGYTFTSYWMHWVKQRPGQGLEWIGYIIPSSGYTKNKQNFKDKATLTADKSSSTAYMQLSNLTYEDSAVYSCARSDGSYPYYFDYWGQGTTLTVSS
VL: B6 VL with T26S, W92G, A99S, L105I
B9: 5B4 (antibody, V domains shown)
VH: QVQLQQPGAELVKPGASVKLSCKASDYTFTNYWMHWVKQRPGRGLEWIGRIDPSSGGAKYNEKFKSKATLTVDKPSSTAYMEFSSLTSEDSAVYYCVRSRYDYDGWFAYWGLGTLVTVSA
VL: DIVMTQAAPSVPVTPGESVSISCRSSKSLLHSNGNTYLYWFLQRPGQSPQLLIYRMSNLASGVPDRFSGSGSGTAFTLRISRVEAEDVGVYYCMQHLEYPFTFGGGTKLEIKR
B10: 4F1 (antibody, V domains shown)
VH: EVKLVESGGGLVQPGGSLSLSCAASGFTFTDYYMSWVRQPPGKALEWLGFIRHKAKGYTAEYSASVKGRFTISRDNSQSILYLQMNALRAEDSATYYCARLYYYGSPHWYFDVWGTGTTVTVSS
VL: QIVLTQSPAIMSASPGEKVTMTCSASSSVSYMHWYQQKSGTSPKRWIYDTSKLASGVPARFSGSGSGTSYSLTISSMEAEDAATYYCQQWSSNPPTFGSGTELEIKR
B11: 3E4 (antibody, V domains shown)
VH: QVQLQQPGAELVKPGASVKLSCKASGYTFTSQWMHWVKQRPGQGLEWIGMIHPNSGSTNNNEKFKSKATLTVDKSSSTAYMQLSSLTSEDSAVYYCTRWAMDYWGQGTSVTASS
VL: DVVMTQTPLSLPVSLGDLASISCRSSQSLVHSNGNTYLHWYLQKPGQSPKLLIFKVSNRFSGVPDRFSGSGSGTDFTLKISRVEAEDLGVYFCSQSTHVPWTFGGGTKLEIKR
B12: 5D9 (antibody, V domains shown)
VH: QVQLQQSGAELARPGASVKLSCKASDDTFINYGINWVKQRTGQGLEWIGETFPSNGNTFYNEKFKGKATLTADRSSSTTYMELRSLTSEDAAVYFCARHSNLPYFDHWGQGSTLTVSS
VL: DIVMTQSPSSLSVSAGEKVTMSCKSSQSLLNSGNQKNYLAWYQQKPGQPPKLLIYGASTRESGVPERFTGSGSGTDFTLTISSVQAEDLAVYYCQNDHSYPFTFGGGTNLEIKR

What follows are binders tested against T1, Recombinant human TSG-6 (R&D Biosystems, catalog #2104-TS) (human, UniProt P98066 18-277) (assay: inhibition of HA binding to TSG-6; HA binding).
T1 sequence (P98066 18-277): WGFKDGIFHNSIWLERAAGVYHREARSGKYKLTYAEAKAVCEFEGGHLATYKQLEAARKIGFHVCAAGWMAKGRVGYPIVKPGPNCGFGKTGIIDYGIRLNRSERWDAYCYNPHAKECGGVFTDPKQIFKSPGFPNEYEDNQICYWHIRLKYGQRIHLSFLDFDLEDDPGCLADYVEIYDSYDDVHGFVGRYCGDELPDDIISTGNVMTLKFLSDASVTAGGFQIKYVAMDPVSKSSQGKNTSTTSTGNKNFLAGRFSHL

Q: Which IC50 does the source give for B1 here?
A: The IC50 was > 667 nM.

Q: How did the IC50 turn out when B2 was run?
A: Its IC50 is > 667 nM.

Q: For B3, which IC50 is on record?
A: Its IC50 is 10 nM.

Q: For B4, which IC50 is on record?
A: The IC50 was 32 nM.

Q: B5 was tested. Which IC50 did it give?
A: The IC50 was 47 nM.

Q: For B6, which IC50 is on record?
A: Its IC50 is > 667 nM.

Q: B7 was tested. Which IC50 did it give?
A: Its IC50 is > 667 nM.

Q: B8 was tested. Which IC50 did it give?
A: Its IC50 is > 2000 nM.

Q: With B9 as the binder, how does the IC50 read?
A: Its IC50 is > 667 nM.

Q: How did the IC50 turn out when B10 was run?
A: Its IC50 is > 667 nM.

Q: B11 was tested. Which IC50 did it give?
A: Its IC50 is 290 nM.

Q: Which IC50 does the source give for B12 here?
A: The IC50 was ~1400 nM.

The binders below were run against T1, Recombinant human TSG-6 (R&D …) (assay: inhibition of HC-HA transesterase activity; HC-HA transesterase).

Q: Which IC50 does the source give for B1 here?
A: The IC50 was 36 nM.

Q: How did the IC50 turn out when B2 was run?
A: Its IC50 is 140 nM.

Q: For B3, which IC50 is on record?
A: The IC50 was 12 nM.

Q: Which IC50 does the source give for B4 here?
A: Its IC50 is 375 nM.

Q: How did the IC50 turn out when B5 was run?
A: The IC50 was 1100 nM.

Q: Which IC50 does the source give for B6 here?
A: The IC50 was 8 nM.

Q: Which IC50 does the source give for B7 here?
A: The IC50 was 10 nM.

Q: Which IC50 does the source give for B8 here?
A: The IC50 was 19 nM.

Q: For B9, which IC50 is on record?
A: Its IC50 is 68 nM.

Q: B10 was tested. Which IC50 did it give?
A: The IC50 was 44 nM.

Q: With B11 as the binder, how does the IC50 read?
A: Its IC50 is > 3000 nM.

Q: Which IC50 does the source give for B12 here?
A: Its IC50 is 4 nM.
